The values that follow are results of earlier work, collected in paper PMC4380812.

This data set addresses HdeA (Escherichia coli) (UniProt P0AES9).

Sequence of HdeA (P0AES9 22-110): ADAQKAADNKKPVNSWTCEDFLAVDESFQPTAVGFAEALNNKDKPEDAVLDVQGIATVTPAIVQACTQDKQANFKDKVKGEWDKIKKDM

As to HdeA (from UniProt P0AES9), the Kd is 1 µM.

For orientation: Kd means the constant that tells how readily two partners part at equilibrium.
